{"source": "paper PMC9407945", "about": "(Science immunology, 2022)", "binders": {"B1": {"name": "SW186 (murine variable regions, murine-human chimeric) (Fab, V domains shown)", "VH": "QVQLQQSGAELVKPGASVKISCKASGVAFSSYWMNWVKQRPGKGLEWIGQIYPGDGDTNYNGKFKGKATLTADKSSSTAYMQLSSLSSEDSAVYFCARGFIATVEETMDYWGQGTSVTVSS", "VL": "DIQMTQTTSSLSASLGDRVTISCRASQDISNYLNWYQQKPDGTVKLLIYYTSRLHSGVPSRFSGSGSGTDYSLTISNLEQEDIATYFCQQSHTLPWTFGGGTKLEIK"}, "B2": {"name": "humanized SW186 H1L3 (antibody, V domains shown)", "VH": "QVQLVQSGAEVKKPGSSVKVSCKASGVAFSSYWMNWVRQAPGQGLEWMGQIYPGDGDTNYNGKFKGRVTITADKSTSTAYMELSSLRSEDTAVYYCARGFIATVEETMDYWGQGTLVTVSS", "VL": "DIQMTQSPSSLSASVGDRVTITCRASQDISNYLNWYQQKPGKAPKLLIYYTSRLHSGVPSRFSGSGSGTDYTLTISSLQPEDFATYFCQQSHTLPWTFGGGTKLEIK"}, "B3": {"name": "humanized SW186 H1L4 (antibody, V domains shown)", "VH": "B2 VH", "VL": "B2 VL with A43T, P44V"}, "B4": {"name": "humanized SW186 H2L1 (antibody, V domains shown)", "VH": "B2 VH with M48I, Y95F", "VL": "B2 VL with Y71F, F87Y"}, "B5": {"name": "humanized SW186 H2L2 (antibody, V domains shown)", "VH": "B2 VH with M48I, Y95F", "VL": "B2 VL with Y71F"}, "B6": {"name": "humanized SW186 H2L3 (antibody, V domains shown)", "VH": "B2 VH with M48I, Y95F", "VL": "B2 VL"}, "B7": {"name": "humanized SW186 H2L4 (antibody, V domains shown)", "VH": "B2 VH with M48I, Y95F", "VL": "B2 VL with A43T, P44V"}, "B8": {"name": "humanized SW186 H3L1 (antibody, V domains shown)", "VH": "B2 VH with M48I, V68A, Y95F", "VL": "B2 VL with Y71F, F87Y"}, "B9": {"name": "humanized SW186 H3L2 (antibody, V domains shown)", "VH": "B2 VH with M48I, V68A, Y95F", "VL": "B2 VL with Y71F"}, "B10": {"name": "humanized SW186 H3L3 (antibody, V domains shown)", "VH": "B2 VH with M48I, V68A, Y95F", "VL": "B2 VL"}, "B11": {"name": "humanized SW186 H3L4 (antibody, V domains shown)", "VH": "B2 VH with M48I, V68A, Y95F", "VL": "B2 VL with A43T, P44V"}, "B12": {"name": "humanized SW186 H4L1 (antibody, V domains shown)", "VH": "B2 VH with R38K, M48I, R67K, V68A, Y95F", "VL": "B2 VL with Y71F, F87Y"}, "B13": {"name": "humanized SW186 H4L2 (antibody, V domains shown)", "VH": "B2 VH with R38K, M48I, R67K, V68A, Y95F", "VL": "B2 VL with Y71F"}, "B14": {"name": "humanized SW186 H4L3 (antibody, V domains shown)", "VH": "B2 VH with R38K, M48I, R67K, V68A, Y95F", "VL": "B2 VL"}, "B15": {"name": "humanized SW186 H4L4 (antibody, V domains shown)", "VH": "B2 VH with R38K, M48I, R67K, V68A, Y95F", "VL": "B2 VL with A43T, P44V"}, "B16": {"name": "humanized SW186 H1L2 (antibody, V domains shown)", "VH": "B2 VH", "VL": "B2 VL with Y71F"}, "B17": {"name": "SW186 Fab (fragment antigen-binding region of SW186) (Fab, V domains shown)", "VH": "B1 VH", "VL": "B1 VL"}, "B18": {"name": "humanized SW186 H1L1 (antibody, V domains shown)", "VH": "B2 VH", "VL": "B2 VL with Y71F, F87Y"}, "B19": {"name": "humanized SW186 H3L2 (antibody, V domains shown)", "VH": "B2 VH with M48I, V68A, Y95F", "VL": "B2 VL with Y71F"}, "B20": {"name": "humanized SW186 H3L3 (antibody, V domains shown)", "VH": "B2 VH with M48I, V68A, Y95F", "VL": "B2 VL"}, "B21": {"name": "humanized SW186 H3L4 (antibody, V domains shown)", "VH": "B2 VH with M48I, V68A, Y95F", "VL": "B2 VL with A43T, P44V"}, "B22": {"name": "humanized SW186 H4L1 (antibody, V domains shown)", "VH": "B2 VH with R38K, M48I, R67K, V68A, Y95F", "VL": "B2 VL with Y71F, F87Y"}, "B23": {"name": "humanized SW186 H4L2 (antibody, V domains shown)", "VH": "B2 VH with R38K, M48I, R67K, V68A, Y95F", "VL": "B2 VL with Y71F"}, "B24": {"name": "humanized SW186 H4L3 (antibody, V domains shown)", "VH": "B2 VH with R38K, M48I, R67K, V68A, Y95F", "VL": "B2 VL"}, "B25": {"name": "humanized SW186 H4L4 (antibody, V domains shown)", "VH": "B2 VH with R38K, M48I, R67K, V68A, Y95F", "VL": "B2 VL with A43T, P44V"}, "B26": {"name": "SW186 Fab (Fab, V domains shown)", "VH": "B1 VH", "VL": "B1 VL"}, "B27": {"name": "humanized SW186 H1L2 (antibody, V domains shown)", "VH": "B2 VH", "VL": "B2 VL with Y71F"}, "B28": {"name": "humanized SW186 H1L3 (antibody, V domains shown)", "VH": "B2 VH", "VL": "B2 VL"}, "B29": {"name": "humanized SW186 H1L4 (antibody, V domains shown)", "VH": "B2 VH", "VL": "B2 VL with A43T, P44V"}, "B30": {"name": "humanized SW186 H2L1 (antibody, V domains shown)", "VH": "B2 VH with M48I, Y95F", "VL": "B2 VL with Y71F, F87Y"}, "B31": {"name": "humanized SW186 H2L2 (antibody, V domains shown)", "VH": "B2 VH with M48I, Y95F", "VL": "B2 VL with Y71F"}, "B32": {"name": "humanized SW186 H2L3 (antibody, V domains shown)", "VH": "B2 VH with M48I, Y95F", "VL": "B2 VL"}, "B33": {"name": "humanized SW186 H2L4 (antibody, V domains shown)", "VH": "B2 VH with M48I, Y95F", "VL": "B2 VL with A43T, P44V"}, "B34": {"name": "humanized SW186 H3L1 (antibody, V domains shown)", "VH": "B2 VH with M48I, V68A, Y95F", "VL": "B2 VL with Y71F, F87Y"}, "B35": {"name": "SW186 monoclonal antibody (murine-human chimeric, human IgG1 backbone) (antibody, V domains shown)", "VH": "B1 VH", "VL": "B1 VL"}}, "note": "Where a chain is given by its changes, count along the chain named."}
{"molecular_target": "SARS-CoV-2 spike ectodomain (S-ecto), Wuhan-hu-1 strain, 2P (SARS-CoV-2, Wuhan-hu-1, UniProt P0DTC2, 2P mutation at residues 986 and 987 | 2P mutation at residues 986 and 987, biotin (NHS-sulfo-LC-Biotin, EZ-link biotinylation kit))", "test": "BLI", "conditions": "both partners purified", "units": {"Kd": "nM", "koff": "s⁻¹", "kon": "M⁻¹ s⁻¹"}}
{"binder": "B1", "Kd": 1.09, "koff": 0.000128, "kon": 117000}
{"binder": "B2", "Kd": 4.37, "koff": 0.000598, "kon": 137000}
{"binder": "B3", "Kd": 5.03, "koff": 0.000519, "kon": 103000}
{"binder": "B4", "Kd": 18.1, "koff": 0.00078, "kon": 43100}
{"binder": "B5", "Kd": 12.6, "koff": 0.00151, "kon": 120000}
{"binder": "B6", "Kd": 3.72, "koff": 0.000713, "kon": 191000}
{"binder": "B7", "Kd": 3.14, "koff": 0.000603, "kon": 192000}
{"binder": "B8", "Kd": 6.69, "koff": 0.00119, "kon": 178000}
{"binder": "B9", "Kd": 6.09, "koff": 0.00122, "kon": 201000}
{"binder": "B10", "Kd": 5.82, "koff": 0.000761, "kon": 131000}
{"binder": "B11", "Kd": 2.6, "koff": 0.000469, "kon": 181000}
{"binder": "B12", "Kd": 4.14, "koff": 0.00077, "kon": 186000}
{"binder": "B13", "Kd": 5.86, "koff": 0.000953, "kon": 163000}
{"binder": "B14", "Kd": 2.4, "koff": 0.000424, "kon": 177000}
{"binder": "B15", "Kd": 1.57, "koff": 0.000338, "kon": 216000}
{"binder": "B16", "Kd": 26.2, "koff": 0.00126, "kon": 48200}
{"molecular_target": "T1, SARS-CoV-2 spike ectodomain (S-ecto), Wuhan-hu-1 strain, residues 1-1208 with 2P mutation (SARS-CoV-2, Wuhan-hu-1, UniProt P0DTC2, 2P mutation at residues 986 and 987)", "test": "BLI", "conditions": "both partners purified", "units": {"Kd": "nM"}}
{"binder": "B17", "Kd": "~1"}
{"molecular_target": "SARS-CoV-2 spike ectodomain (S-ecto), Wuhan-hu-1, 2P (SARS-CoV-2, Wuhan-hu-1, UniProt P0DTC2, 2P mutation at residues 986 and 987, biotinylated (EZ-link NHS-sulfo-LC-Biotin) for the BLI assay)", "test": "BLI", "conditions": "both partners purified", "units": {"Kd": "nM"}}
{"binder": "B18", "Kd": 10}
{"binder": "B19", "Kd": 6.09}
{"binder": "B20", "Kd": 5.82}
{"binder": "B21", "Kd": 2.6}
{"binder": "B22", "Kd": 4.14}
{"binder": "B23", "Kd": 5.86}
{"binder": "B24", "Kd": 2.4}
{"binder": "B25", "Kd": 1.57}
{"binder": "B26", "Kd": 1.09}
{"binder": "B27", "Kd": 26.2}
{"binder": "B28", "Kd": 4.37}
{"binder": "B29", "Kd": 5.03}
{"binder": "B30", "Kd": 18.1}
{"binder": "B31", "Kd": 12.6}
{"binder": "B32", "Kd": 3.72}
{"binder": "B33", "Kd": 3.14}
{"binder": "B34", "Kd": 6.69}
{"molecular_target": "T1, SARS-CoV-2 spike ectodomain (S-ecto), …", "test": "cell-based or functional assay", "conditions": "not given", "units": {"neutralisation of infectious mNeonGreen SARS-CoV-2, WA1 strain, IC50": "µg/mL"}}
{"binder": "B35", "neutralisation of infectious mNeonGreen SARS-CoV-2, WA1 strain, IC50": "~0.04"}
